Laboratory results taken from PMC9482650, “Quantitative fragmentomics allow affinity mapping of interactomes” (Nature Communications, 2022).

Legend:
Experiment in all cases: holdup assay
Parameters in all cases: key: below the threshold = too weak to quantify, mostly under pKd 3.1 to 4
Details in all cases: plain residues with an end cap or a label only (N-terminal biotin on a linker: ahx)
[1] = biological target: TJP1_2, Q07157
[2] = biological target: NHERF4_2, Q86UT5
[3] = biological target: MAST1, Q9Y2H9
MAST1, Q9Y2H9, sequence (Q9Y2H9 962-1065): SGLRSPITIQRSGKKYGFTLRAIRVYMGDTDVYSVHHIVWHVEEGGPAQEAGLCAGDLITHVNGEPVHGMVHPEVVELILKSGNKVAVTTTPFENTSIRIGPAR

[4] = biological target: T1, DFNB31_3, Q9P202
T1 sequence (Q9P202 811-907, limits assumed, looked up): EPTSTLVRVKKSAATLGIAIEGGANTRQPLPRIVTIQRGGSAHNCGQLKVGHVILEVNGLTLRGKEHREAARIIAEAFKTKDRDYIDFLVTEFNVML

[5] = biological target: T2, LNX2_2, Q8N448
T2 sequence (Q8N448 334-432, limits assumed, looked up): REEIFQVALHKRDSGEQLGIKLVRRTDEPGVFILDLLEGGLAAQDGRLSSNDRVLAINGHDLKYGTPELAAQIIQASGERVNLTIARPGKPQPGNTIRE

[6] = biological target: T3, SHANK1, Q9Y566
T3 sequence (Q9Y566 658-767, limits assumed, looked up): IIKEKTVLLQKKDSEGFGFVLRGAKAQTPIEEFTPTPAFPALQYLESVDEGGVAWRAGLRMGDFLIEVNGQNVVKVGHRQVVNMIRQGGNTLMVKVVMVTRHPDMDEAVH

[7] = biological target: T4, NHERF3_1, Q5T2W1
T4 sequence (Q5T2W1 4-100, limits assumed, looked up): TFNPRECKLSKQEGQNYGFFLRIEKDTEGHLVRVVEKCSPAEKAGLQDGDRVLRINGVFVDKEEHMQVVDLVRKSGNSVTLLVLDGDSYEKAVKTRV

[8] = biological target: T5, RHPN1, Q8TCX5
T5 sequence (Q8TCX5 508-602, limits assumed, looked up): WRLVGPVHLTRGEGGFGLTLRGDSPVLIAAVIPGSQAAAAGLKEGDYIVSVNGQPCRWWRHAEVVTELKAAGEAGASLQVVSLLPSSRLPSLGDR

[9] = biological target: GORASP2, Q9H8Y8
[10] = biological target: DLG4_2, P78352
DLG4_2, P78352, sequence (P78352 155-259): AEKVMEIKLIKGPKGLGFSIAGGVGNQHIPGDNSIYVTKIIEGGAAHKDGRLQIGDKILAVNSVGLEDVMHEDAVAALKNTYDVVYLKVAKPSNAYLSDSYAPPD

[11] = biological target: SCRIB_1, Q14160
SCRIB_1, Q14160, sequence (Q14160 718-814): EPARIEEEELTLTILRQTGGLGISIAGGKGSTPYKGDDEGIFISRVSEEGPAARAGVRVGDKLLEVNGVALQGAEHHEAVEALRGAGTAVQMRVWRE

[12] = biological target: FRMPD3, Q5JV73
FRMPD3, Q5JV73, sequence (Q5JV73 12-100): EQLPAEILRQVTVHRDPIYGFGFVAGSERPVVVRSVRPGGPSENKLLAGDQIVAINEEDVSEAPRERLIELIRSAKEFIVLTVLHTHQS

[13] = biological target: GORASP1, Q9BQQ3
GORASP1, Q9BQQ3, sequence (Q9BQQ3 1-208): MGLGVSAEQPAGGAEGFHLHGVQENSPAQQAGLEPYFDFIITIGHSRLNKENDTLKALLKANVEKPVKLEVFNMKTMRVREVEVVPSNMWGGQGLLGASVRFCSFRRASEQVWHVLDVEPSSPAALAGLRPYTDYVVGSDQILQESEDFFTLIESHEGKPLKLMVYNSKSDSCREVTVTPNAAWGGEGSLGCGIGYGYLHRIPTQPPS

[14] = biological target: NHERF2_2, Q15599
NHERF2_2, Q15599, sequence (Q15599 142-238): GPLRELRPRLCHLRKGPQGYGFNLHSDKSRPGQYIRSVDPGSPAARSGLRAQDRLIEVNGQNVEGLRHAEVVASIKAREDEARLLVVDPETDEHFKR

[15] = biological target: Inadl_8, Q8NI35
Inadl_8, Q8NI35, sequence (Q8NI35 1425-1530): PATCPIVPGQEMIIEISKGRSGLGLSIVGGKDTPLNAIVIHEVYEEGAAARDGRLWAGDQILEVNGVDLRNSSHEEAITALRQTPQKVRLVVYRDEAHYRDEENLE

[16] = biological target: PTPN3, P26045
PTPN3, P26045, sequence (P26045 505-587): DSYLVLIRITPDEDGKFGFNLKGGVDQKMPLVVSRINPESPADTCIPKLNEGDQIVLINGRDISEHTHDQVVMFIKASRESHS

[17] = biological target: T6, DLG3_2, Q92796
T6 sequence (Q92796 221-321, limits assumed, looked up): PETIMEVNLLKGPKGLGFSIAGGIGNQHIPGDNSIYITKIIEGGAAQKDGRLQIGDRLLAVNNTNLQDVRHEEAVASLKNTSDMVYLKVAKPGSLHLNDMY

[18] = biological target: T7, LIN7C, Q9NUP9
T7 sequence (Q9NUP9 88-185, limits assumed, looked up): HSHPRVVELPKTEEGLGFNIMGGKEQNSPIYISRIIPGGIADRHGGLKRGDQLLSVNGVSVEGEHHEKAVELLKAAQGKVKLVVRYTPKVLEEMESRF

[19] = biological target: PDZRN4_1, Q6ZMN7
PDZRN4_1, Q6ZMN7, sequence (Q6ZMN7 213-318): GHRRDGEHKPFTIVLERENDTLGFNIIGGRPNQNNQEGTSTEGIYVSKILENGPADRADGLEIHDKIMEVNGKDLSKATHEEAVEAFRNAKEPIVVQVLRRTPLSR

[20] = biological target: LNX1_1, Q8TBB1
LNX1_1, Q8TBB1, sequence (Q8TBB1 261-371): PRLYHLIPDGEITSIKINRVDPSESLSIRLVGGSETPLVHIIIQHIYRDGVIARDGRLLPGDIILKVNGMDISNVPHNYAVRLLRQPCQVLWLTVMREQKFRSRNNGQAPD

[21] = biological target: T8, SYNJ2BP, P57105
T8 sequence (P57105 8-110, limits assumed, looked up): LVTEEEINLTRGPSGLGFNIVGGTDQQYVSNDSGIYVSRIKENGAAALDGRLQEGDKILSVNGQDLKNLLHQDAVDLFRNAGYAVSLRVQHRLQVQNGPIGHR

[22] = biological target: MAGI1_2, Q96QZ7
MAGI1_2, Q96QZ7, sequence (Q96QZ7 456-580): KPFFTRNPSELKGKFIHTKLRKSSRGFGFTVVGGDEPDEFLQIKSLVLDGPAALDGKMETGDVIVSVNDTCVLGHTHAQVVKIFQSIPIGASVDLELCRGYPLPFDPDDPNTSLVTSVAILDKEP

[23] = biological target: T9, MPP2, Q14168
T9 sequence (Q14168 180-250, limits assumed, looked up): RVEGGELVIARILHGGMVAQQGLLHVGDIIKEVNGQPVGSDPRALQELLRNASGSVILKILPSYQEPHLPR

[24] = biological target: DLG4_1, P78352
DLG4_1, P78352, sequence (P78352 62-152): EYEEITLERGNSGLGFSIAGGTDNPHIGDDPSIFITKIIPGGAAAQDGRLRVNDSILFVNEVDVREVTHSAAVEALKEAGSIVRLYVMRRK

[25] = biological target: T10, SNTG1, Q9NSN8
T10 sequence (Q9NSN8 52-150, limits assumed, looked up): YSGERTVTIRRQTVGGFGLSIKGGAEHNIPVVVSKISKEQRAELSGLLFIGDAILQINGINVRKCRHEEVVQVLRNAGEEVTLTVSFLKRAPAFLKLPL

[26] = biological target: T11, NHERF3_4, Q5T2W1
T11 sequence (Q5T2W1 373-468, limits assumed, looked up): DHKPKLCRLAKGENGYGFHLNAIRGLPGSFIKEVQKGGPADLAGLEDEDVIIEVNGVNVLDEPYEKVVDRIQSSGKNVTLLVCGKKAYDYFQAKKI

[27] = biological target: MAGI2_3, Q86UL8
MAGI2_3, Q86UL8, sequence (Q86UL8 600-682): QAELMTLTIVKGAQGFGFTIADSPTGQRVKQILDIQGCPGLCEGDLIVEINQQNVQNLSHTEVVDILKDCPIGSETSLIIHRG

NHERF4_2, Q86UT5, sequence (Q86UT5 220-308): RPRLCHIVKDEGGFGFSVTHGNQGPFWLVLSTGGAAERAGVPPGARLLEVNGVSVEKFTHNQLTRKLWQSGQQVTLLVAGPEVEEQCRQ
TJP1_2, Q07157, sequence (Q07157 181-274): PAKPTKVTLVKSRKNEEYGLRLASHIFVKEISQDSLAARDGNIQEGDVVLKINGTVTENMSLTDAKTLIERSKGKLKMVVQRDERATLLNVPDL

pKd [1]: below the threshold | pKd [2]: below the threshold | pKd [3]: 3.5 | pKd [4]: below the threshold | pKd [5]: below the threshold | pKd [6]: 4.8 | pKd [7]: 4.2 | pKd [8]: 4.27 | pKd [9]: below the threshold | pKd [10]: below the threshold | pKd [11]: below the threshold | pKd [12]: below the threshold | pKd [13]: below the threshold | pKd [14]: 3.66 | pKd [15]: below the threshold | pKd [16]: 3.99 | pKd [17]: below the threshold | pKd [18]: below the threshold | pKd [19]: below the threshold | pKd [20]: below the threshold | pKd [21]: below the threshold | pKd [22]: below the threshold | pKd [23]: below the threshold | pKd [24]: below the threshold | pKd [25]: below the threshold | pKd [26]: 3.95 | pKd [27]: below the threshold
Binder: GIFPTLTSPL [SHROOM3, Q8TF72]
